The target in test [1] is HSV-1 glycoprotein D, C-terminal truncated mutant gD285 (aa 1-285) (herpes simplex virus type 1 (HSV-1)). Description: AUC; sedimentation velocity, gD alone at 5, 10 and 20 uM in PBS pH 7.8, 20 C, 40k rpm, absorbance optics, c(s) distributions in SedFit; monomer and dimer species, said not to be in a monomer-dimer equilibrium.
For test [2], the target named is HSV-1 glycoprotein D, C-terminal truncated mutant gD306 (aa 1-306) (herpes simplex virus type 1 (HSV-1)). Described as above.
Test [3] deals with HVEM (Homo sapiens) (UniProt Q92956). As to conditions: cited from earlier work.
Chain of UniProt Q92956 (Q92956 39-283): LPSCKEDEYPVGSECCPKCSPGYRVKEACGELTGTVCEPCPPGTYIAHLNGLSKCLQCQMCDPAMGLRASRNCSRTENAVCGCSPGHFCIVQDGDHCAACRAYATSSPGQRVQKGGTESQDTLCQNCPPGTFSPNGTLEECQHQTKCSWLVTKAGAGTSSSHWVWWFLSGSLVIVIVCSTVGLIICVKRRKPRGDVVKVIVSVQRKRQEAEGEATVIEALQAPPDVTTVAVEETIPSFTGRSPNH

Among the data in article PMC9678342 are stoichiometry N and Kd values, retold here.

The term stoichiometry N denotes the number of molecules, sites or subunits per partner or assembly. Usually Kd stands for the free concentration of one partner at which half of the binding sites on the other are occupied at equilibrium, for simple one-to-one binding.

In the case of “HSV-1 glycoprotein D, C-terminal truncated mutant gD285 (aa 1-285) (domain or fragment)”, the stoichiometry N in test [1] stood at 2.

On to “HSV-1 glycoprotein D, C-terminal truncated mutant gD306 (aa 1-306) (domain or fragment)”, for which the stoichiometry N in test [2] was determined as 2.

In the case of “glycoprotein D (gD285) gD285 (from UniProt Q69091)”, the Kd in test [3] was 37 nM.
